Test results reported in PMC548348.

Biological target: hnRNP A2 (recombinant) (Homo sapiens, UniProt P22626-2 1-341)
Assay: UV-cross-linking EMSA, competition

GCCAAGGAGCC (ssRNA) [A2RE11]
binding result: binds
